In patent publication US20070224199A1 (UNIVERSITY OF CENTRAL FLORIDA RESEARCH FOUNDATION, published 2007):
Numbering of substitutions follows the chain as printed. Numbers in names are those of the source.

B1: MKRN1-V5 (enzyme, not shown: small tags and cut ends)
chain: MAEAATPGTTATTSGAGAAAATAAAASPTPIPTVTAPSLGAGGGGGGSDGSGGGWTKQVTCRYFMHGVCKEGDNCRYSHDLSDSPYSVVCKYFQRGYCIYGDRCRYEHSKPLKQEEATATELTTKSSLAASSSLSSIVGPLVEMNTGEAESRNSNFATVGAGSEDWVNAIEFVPGQPYCGRTAPSCTEAPLQGSVTKEESEKEQTAVETKKQLCPYAAVGECRYGENCVYLHGDSCDMCGLQLLHPMDAAQRSQHIKSCIEAHEKDMELSFAVQRSKDMVCGICMEVVYEKANPSERRFGILSNCNHTYCLKCIRKWRSAKQFESKIIKSCPECRITSNFVIPSEYWVEEKEEKQKLILKYKEAMSNKACRYFDEGRGSCPFGGNCFYKHAYPDAGREEPQRQKVGTSSRYRAQRRNHFWELIEERENSNPFDNDEEEVVTFELGEMLLMLLAAGGDDELTDSEDEWDLFHDELEDFYDLDL
notes: Full-length MKRN1 expressed in transfected H1299 cells
B2: MKRN1^H307E-V5 (enzyme, not shown: small tags and cut ends)
chain: B1 chain with H307E
notes: Expressed in transfected H1299 cells together with wild-type MKRN1-V5; also called hMKRN1^H307E

Experiments:
[1] = molecular target: T1, Flag-hTERT (N-terminal Flag-tagged full-length hTERT) (human, UniProt O14746 1-1132); experiment: co-immunoprecipitation from H1299 cells (anti-Flag IP, anti-V5 immunoblot), with MG132
T1 construct: expressed in transfected H1299 cells; also called Flag-tagged hTERT
Protocol: Amino acid sequences surrounding the RING finger domain in MKRN1 and mutants used in this study. Cysteines and a histidine in the RING finger domain are shown in red. Mutated residue in MKRN1^H307E is shown in blue. (C) H1299 cells co-transfected with hTERT-HA and MKRN1 -V5 were either untreated or treated for 2 hours with 10 μg/ml ALLnN. Anti-HA immunoprecipitates were analyzed by immunoblotting using an anti-V5 antibody probe. […] (D) H1299 cells co-transfected with Flag-hTERT and MKRN1-V5 were either untreated or treated for 2 hours with 10 μM MG132. Anti-Flag immunoprecipitates were analyzed by immunoblotting using an anti-V5 antibody probe. […] Flag-hTERT was visualized with an anti-Flag antibody probe.
H1299 cells were transiently transfected with the expression vectors indicated in the figure legends using TransFast transfection reagent (Promega, Medison, Wis.) according to the manufacturer's instructions. Cells were lysed with buffer containing 0.5% NP-40, 50 mM Tris-HCl (pH 7.5), 150 mM NaCl, 2 mM phenyl methylsulphonyl fluoride. […] When ubiquitin conjugates of hTERT were detected, immunoprecipitation was performed with lysis buffer containing 0.1% SDS to dissociate its interacting proteins. […]

[2] = molecular target: T2, GST-hTERT-HA (C-terminal region, amino acid 946-1132, of hTERT), O14746
T2 chain: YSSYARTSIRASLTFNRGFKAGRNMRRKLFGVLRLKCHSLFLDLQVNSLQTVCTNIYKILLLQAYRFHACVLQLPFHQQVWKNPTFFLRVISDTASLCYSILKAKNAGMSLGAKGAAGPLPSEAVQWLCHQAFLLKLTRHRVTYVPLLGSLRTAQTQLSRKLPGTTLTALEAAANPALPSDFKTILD

[3] = molecular target: T1, Flag-hTERT (N-terminal Flag-tagged …); experiment: inferred from the dominant negative effect in the in vivo ubiquitination assay in H1299 cells
Protocol: H1299 cells were transiently transfected with the expression vectors indicated in the figure legends using TransFast transfection reagent (Promega, Medison, Wis.) according to the manufacturer's instructions. Cells were lysed with buffer containing 0.5% NP-40, 50 mM Tris-HCl (pH 7.5), 150 mM NaCl, 2 mM phenyl methylsulphonyl fluoride. After centrifugation at 12,000 rpm for 30 min, the supernatants were immunoprecipitated for 2 hours with anti-Flag (Sigma, St. Louis, Mo.) or anti-HA (Santa Cruz biotechnology, Santa Cruz, Calif.) antibodies and then incubated with Sepharose beads conjugated to Protein G (Amersham Biosciences Inc., Piscataway, N.J.). When ubiquitin conjugates of hTERT were detected, immunoprecipitation was performed with lysis buffer containing 0.1% SDS to dissociate its interacting proteins. Immunoblot analyses were performed using anti-hTERT (Santa Cruz biotechnology, Santa Cruz, Calif.), anti-V5 (Invitrogen, Carlsbad, Calif.), anti-HA, and anti-Flag antibodies.
To investigate whether MKRN1 contributes to the ubiqitination of hTERT in vivo, H1299 cells were cotransfected with Flag-hTERT, HA-ubiquitin, and MKRN1-V5 constructs, and immunoprecipitated with anti-Flag antibody followed by immunoblotting with anti-HA antibody. Ubiquitin conjugates of hTERT were easily detected in the presence of MG132 (FIG. 4B, lane 2 in upper blot). […]

Binder | binding result [1] | in vitro ubiquitination assay (anti-HA immunoblot) [2] | binding result [3]
B1 | binds | the C-terminal domain (residues 946-1132) of hTERT was efficiently ubiquitinated by wild-type MKRN1 | 
B2 |  | but not by mutants MKRN1^307E or MKRN1^ΔC | binds
